Results reported in the supplement of paper PMC9170038.

Test system: MS2 coat protein
Experiment: apparent KD of MS2 coat protein; higher = weaker reporter binding
Settings: Eterna round: R107
Summary of the method: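 For every design, apparent KD is the median of normalised binding-curve fits from its clusters. The RNA switches were transcribed on-chip from Illumina sequencing clusters and titrated with SNAP-549-labelled MS2 coat protein (twofold steps, 0.7 or 1.5 nM to 3 µM; 0.8–1.5 h to 10–20 min per step). Titrations used 100 mM Tris-HCl pH 7.5, 80 mM KCl, 4 mM MgCl2, without or with constant ligand.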

[1] = input ligand: theophylline 20 uM
[2] = input ligand: theophylline 2 mM
[3] = input ligand: tryptophan 2.4 mM

Row | Sequence | apparent KD of MS2 coat protein (input ligand: arginine 13.2 mM) [nM] | apparent KD of MS2 coat protein (input ligand: none) [nM] | apparent KD of MS2 coat protein [1] [nM] | apparent KD of MS2 coat protein [2] [nM] | apparent KD of MS2 coat protein [3] [nM]
1 | UAUGCACAUGAGGAUCACCCAUGUAUGGAAGGAGCGGUGAAUAAACCAGGUAGGUCGCCAUUGUGAGGGUCAUCUAUGUAAUCGU [Exclusion - Arginine A (Freestyle 4)] | 58.6 | 85.3 | 125 | 133 | 91.8
2 | AGACAUGAGGAUCACCCAUGUAGUAUGGAUACCAGAUCCAGAUUUAUCCCUUGGCAGCUGUGGUACAGUGAUGGAUUGCUCCUAG [Exclusion - Theophylline A (Freestyle 9)] | 30.4 |  | 52 |  | 32.7
3 | UGUAUGUGAUUUGAUACCAGACCAGCGGGUGUUACUUGAGGAACACCCAAGUAGGUUUGGGUCCCUUGGCAGCAAAUCGCAUACU [SS Theo B #24 Ms9] | 452 | 39.2 | 309 | 1410 | 79
4 | AUCUCAUAGAGUGAUACCAGACUACAUGAGGAUCACCCAUGUUAGAUUUAAAUAUCAUUUGUCCCUUGGCAGCACAUUAAGUACA [JR_Nu_SSTheophyB_Sub021] | 14.2 |  | 14.8 |  | 12.7
5 | ACGAACUGUAGUGAUACCAGACGUACAUGAGGAUCACCCAUGUUGUAAACAUGGUUAAUAGUCCCUUGGCAGCACAGUUAGUUCG [JR_ExcTheophyB_Sub002] | 105 |  | 612 |  | 695
6 | UUUAAAUAGACGGCCGCCACUGGAAUUAAUACAUGAGGAUCACCCAUGUAGAGAGAAUAAUAAUACAGGACCGGGUCUUCAUGAA [SS Tryp B Tesla 1] | 27.2 |  | 22.1 | 38.9 | 
7 | UUAAGAGGAUAUCAAAUUUGAUUUUGUGAUACCAGAAUAAUUUUAUUCCCUUGGCAGCAUGACAUGAGGAUCACCCAUGUGUCUU [SSTheo A #1] | 37.3 |  | 44.3 |  | 30.9
8 | UUGUAUAUGCGAAGGAGCGGGAAAUAUAUAUAUAUAAUCCUAACAUGAGGAUCACCCAUGUCCCAGGUAGGUCGCGCAUAUGUGG [12.G] | 34.6 | 58.8 | 65.6 | 68.3 | 54.9
9 | GUAAUGAUAAGAAGGAGCGUCGAAAAUGGGUAAACAUGAGGAUCACCCAUGUAAAGGGAACGACAGGUAGGUCGCUUAUUAUUAC [AstromonsSSArgB#21] | 126 | 207 | 356 | 203 | 210
10 | ACAUGAGGAUCACCCAUGUAUGAUGUUCCUCGAGGACCGGUACGGCCGCCACUCGAACGAGUGGCGCGCGAGUGCGCACUCGCGC [aWa] | 21.1 | 15.7 | 38.8 | 16.8 | 14.1
11 | UGCCGAGACGUGGAUUACCCGUGUACCGAAGGAGCGCCCGAAAGGGCAGGUAGGUCGCGGAGGACAUGAGGAUCACCCAUGUUUA | 202 | 56.3 | 55 | 79.8 | 55.7
12 | CGCAACCCACAUGAGGAUCACCCAUGUGAAGGAGCGGCGAAUAAGCCAGGUAGGUCGCGCAUGAAUAAAUCAUGUAGGAAGCGAA [XArg-A 7 V1&2] | 18 | 20.1 | 27.8 | 28 | 22.5
13 | GCGAUACAUGAGGAUCACCCAUGUGCAGAUACCAGAGGUGCAUGCCUCCCUUGGCAGCUGCGACGCUCUGGCAUCUUGUGGGAUG [Same State Theophylline A GF20] | 37.6 |  | 86.4 |  | 56.9
14 | CUCGAGUUAUGAGAUACCAGACUAUAGUUUACAUGAGGAUCACCCAUGUUAUGGGUGGUGGUCCCUUGGCAGCUCAUAUGUUUAA [#08 Exclusion-TheophyllineB] | 105 |  | 220 |  | 85.1
15 | CUCUCAUGAACAUGAGGAUCACCCAUGUAACGAGGACCGGUACGGCCGCCACUCGAACGUGGAUACCAAUCGAGUGGGUGAGAGA [Tryp A Ex t5] | 31 | 21.5 | 25.2 | 23.8 | 80.1
16 | ACAUCCAGGUUAAUCGUGGGCAUACUCGAUACCAGUAUUUUAAUCUACCCUUGGCAGCGACAUGAGGAUCACCCAUGUGCGAUGA [XTheo A #12] | 11.7 |  | 14.1 |  | 13.4
17 | UGUAUGUGAUCUGAUACCAGAGUGACGCGAAAGCGACCUGAGGAUCACCCUGGUAAAUAACUCCCUUGGCAGCAGAUCGCAUACU | 43.8 | 45 | 36.6 | 17.8 | 48.3
